This is an account of results in US20140356366A1 (SAMSUNG ELECTRONICS, published 2014).

The target of assay [1] is c-Met on MKN45 stomach cancer cells (human, UniProt P08581 25-1390). Description: cell-based or functional assay.
Assay [2] has as its target T1, EGFR-Fc (#344-ER, R&D Systems) (UniProt P00533 25-645).
T1 construct: Bought reagent; only name and catalogue number are printed; not shown: Fc part of the bought fusion protein
Put plainly: Biacore T100, antibody captured by human Fab capturer on CM5 chip, EGFR-Fc injected. The method, then:
(§1) The anti-c-Met/anti-EGFR bispecific antibody was analyzed for affinity for the two antigens (c-Met/EGFR) using a Biacore T100 instrument (GE). […] The chip surface was regenerated by injecting a 10 mM Glycine-HCl solution (pH 1.5). For affinity evaluation, the data was fitted using the BIAevaluation software (GE Healthcare, Biacore T100 evaluation software).
(In general: SPR reads the build-up and loss of mass on a sensor chip optically.)

In assay [3] the target is T2, human c-Met/Fc fusion protein (R&D Systems) (human, UniProt P08581 25-932).
T2 construct: Bought reagent; Treated as one molecule; also called c-Met-Fc (#358-MT/CF, R&D Systems); human c-Met/Fc protein; not shown: Fc part of the bought fusion protein
T2 sequence (P08581 25-932 limits assumed): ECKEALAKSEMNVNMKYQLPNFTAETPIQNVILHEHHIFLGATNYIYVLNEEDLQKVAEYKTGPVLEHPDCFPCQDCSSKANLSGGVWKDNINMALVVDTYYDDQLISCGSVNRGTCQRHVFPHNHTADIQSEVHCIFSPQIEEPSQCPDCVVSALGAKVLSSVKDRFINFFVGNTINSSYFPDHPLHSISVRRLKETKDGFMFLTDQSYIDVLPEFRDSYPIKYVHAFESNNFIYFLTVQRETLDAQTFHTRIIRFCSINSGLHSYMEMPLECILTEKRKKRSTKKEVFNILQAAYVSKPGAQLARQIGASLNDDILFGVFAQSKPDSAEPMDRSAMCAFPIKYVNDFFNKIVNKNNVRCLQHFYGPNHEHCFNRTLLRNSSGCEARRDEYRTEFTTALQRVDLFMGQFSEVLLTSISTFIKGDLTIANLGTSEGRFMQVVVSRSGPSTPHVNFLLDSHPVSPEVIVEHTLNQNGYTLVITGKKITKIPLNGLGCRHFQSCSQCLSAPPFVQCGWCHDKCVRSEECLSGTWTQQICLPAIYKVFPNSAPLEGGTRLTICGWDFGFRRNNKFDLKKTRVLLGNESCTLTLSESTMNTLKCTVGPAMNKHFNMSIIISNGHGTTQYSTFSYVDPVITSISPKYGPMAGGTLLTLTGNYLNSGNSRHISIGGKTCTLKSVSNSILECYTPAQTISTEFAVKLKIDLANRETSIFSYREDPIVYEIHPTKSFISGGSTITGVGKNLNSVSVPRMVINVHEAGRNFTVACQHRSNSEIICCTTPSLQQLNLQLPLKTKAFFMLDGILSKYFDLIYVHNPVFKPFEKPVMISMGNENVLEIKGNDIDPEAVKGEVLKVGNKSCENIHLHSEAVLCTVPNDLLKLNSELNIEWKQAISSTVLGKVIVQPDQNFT
Put plainly: Biacore T100, antibody captured by human Fab capturer on CM5 chip, c-Met-Fc injected. Here is the method:
as §1

Assay [4] has as its target T3, synthesized peptide CSPQIEDPSQC (SEQ ID NO: 127), E168D.
T3 construct: Core EDPSQ, E168D mutation of c-Met
T3 peptide: CSPQIEDPSQC
Description: PEPSCAN ELISA on synthesized peptides. The method, then:
(§2) The peptides were maintained at room temperature for 30 minutes by using a 5% blocking solution to provoke a reaction (4% ovalbumin, 5% horse serum, and 1% Tween 80). […] Thereafter, the resultant product was treated with rabbit-anti-sheep antibody (SIGMA) and washed with PBS, and the washed product was then treated with peroxidase-attached swine-anti-rabbit antibody (SIGMA) and washed with PBS. Then, the resultant was treated with 2 ul/ml of peroxidase 2,2′-azino-di-3-ethylbenzthiazoline sulfonate (ABTS) (SIGMA) in 3% H₂O₂, and a color reaction was measured after 1 hour.
Background: In an ELISA, binding on a coated surface is turned into a signal by an enzyme label.

The target in assay [5] is T4, synthesized peptide CQIEDPSQAPC (SEQ ID NO: 129), E168D.
T4 construct: Core EDPSQ, E168D mutation of c-Met
T4 peptide: CQIEDPSQAPC
Put plainly: PEPSCAN ELISA on synthesized peptides. The method, then:
as §2

For assay [6], the target named is T5, synthesized peptide CIEDPSQAPDC (SEQ ID NO: 130), E168D.
T5 construct: Core EDPSQ, E168D mutation of c-Met
T5 peptide: CIEDPSQAPDC
Put plainly: PEPSCAN ELISA on synthesized peptides. Here is the method:
as §2

The target in assay [7] is T6, peptide EEPSQ (SEQ ID NO: 73).
T6 peptide: EEPSQ
Put plainly: Biacore, huAbF46 immobilized on CM5 chip, peptide injected.

Assay [8] deals with T7, peptide EAPSQ (SEQ ID NO: 134).
T7 peptide: EAPSQ
The description is as above.

Assay [9] concerns the target T8, peptide AEPSQ (SEQ ID NO: 133).
T8 peptide: AEPSQ
The assay is described as above.

The target in assay [10] is T9, peptide EEPSA (SEQ ID NO: 137).
T9 peptide: EEPSA
The description is as above.

Assay [11] addresses T10, peptide EEPAQ (SEQ ID NO: 136).
T10 peptide: EEPAQ
The description is as above.

Assay [12] concerns the target T11, peptide EEASQ (SEQ ID NO: 135).
T11 peptide: EEASQ
Described as above.

Usually Kd stands for the constant that tells how readily two partners part at equilibrium. Lower therefore signals tighter binding. The koff is the first-order rate constant of dissociation. As usually defined, the kon is the rate constant with which the complex forms. A low value points to slower complex formation.

Positions count from the first letter of the chain named.

Chain of c-Met on MKN45 stomach cancer cells (P08581 25-1390): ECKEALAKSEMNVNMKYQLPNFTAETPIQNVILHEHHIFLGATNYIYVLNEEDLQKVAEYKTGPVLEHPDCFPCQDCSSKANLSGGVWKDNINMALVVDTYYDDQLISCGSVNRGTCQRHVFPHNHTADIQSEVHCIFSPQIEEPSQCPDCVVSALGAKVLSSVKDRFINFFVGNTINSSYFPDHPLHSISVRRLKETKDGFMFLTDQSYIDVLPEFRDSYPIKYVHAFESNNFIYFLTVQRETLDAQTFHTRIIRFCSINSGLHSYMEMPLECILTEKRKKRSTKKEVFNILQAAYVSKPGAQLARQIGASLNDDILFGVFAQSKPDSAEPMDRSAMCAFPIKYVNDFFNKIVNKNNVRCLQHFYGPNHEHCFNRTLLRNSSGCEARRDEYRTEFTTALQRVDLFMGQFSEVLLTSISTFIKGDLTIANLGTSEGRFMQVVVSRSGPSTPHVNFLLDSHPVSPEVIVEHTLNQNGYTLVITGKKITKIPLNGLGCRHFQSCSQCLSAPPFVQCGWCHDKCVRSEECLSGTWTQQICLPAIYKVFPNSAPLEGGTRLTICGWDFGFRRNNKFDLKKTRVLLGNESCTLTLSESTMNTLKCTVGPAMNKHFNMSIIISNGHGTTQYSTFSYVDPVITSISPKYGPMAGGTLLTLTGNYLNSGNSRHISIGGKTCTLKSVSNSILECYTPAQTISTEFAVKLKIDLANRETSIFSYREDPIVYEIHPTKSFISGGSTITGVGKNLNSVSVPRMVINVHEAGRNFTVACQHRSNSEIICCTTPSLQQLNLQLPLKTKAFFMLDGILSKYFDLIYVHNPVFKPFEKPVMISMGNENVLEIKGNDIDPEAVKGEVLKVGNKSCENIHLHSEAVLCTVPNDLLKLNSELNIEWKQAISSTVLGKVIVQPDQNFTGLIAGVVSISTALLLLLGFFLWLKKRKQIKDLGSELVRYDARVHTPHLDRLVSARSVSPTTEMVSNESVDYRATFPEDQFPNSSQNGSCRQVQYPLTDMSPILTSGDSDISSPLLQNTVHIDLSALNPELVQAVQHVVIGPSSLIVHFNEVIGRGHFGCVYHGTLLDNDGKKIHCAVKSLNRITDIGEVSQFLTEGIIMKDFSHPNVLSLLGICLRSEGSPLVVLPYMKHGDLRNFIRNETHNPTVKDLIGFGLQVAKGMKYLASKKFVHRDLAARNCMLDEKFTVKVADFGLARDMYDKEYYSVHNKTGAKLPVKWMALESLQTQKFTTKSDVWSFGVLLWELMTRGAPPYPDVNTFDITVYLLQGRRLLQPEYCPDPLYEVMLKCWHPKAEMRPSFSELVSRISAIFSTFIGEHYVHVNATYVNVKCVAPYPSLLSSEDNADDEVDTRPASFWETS

B1: anti-c-Met/anti-EGFR bispecific antibody ME-03 (bispecific antibody)
heavy: EVQLVESGGGLVQPGGSLRLSCAASGFTFTDYYMSWVRQAPGKGLEWLGFIRNKANGYTTEYSASVKGRFTISRDNSKNTLYLQMNSLRAEDTAVYYCARDNWFAYWGQGTLVTVSSASTKGPSVFPLAPCSRSTSESTAALGCLVKDYFPEPVTVSWNSGALTSGVHTFPAVLQSSGLYSLSSVVTVPSSNFGTQTYTCNVDHKPSNTKVDKTVERKCCVECPPCPAPPVAGPSVFLFPPKPKDTLMISRTPEVTCVVVDVSHEDPEVQFNWYVDGVEVHNAKTKPREEQFNSTFRVVSVLTVVHQDWLNGKEYKCKVSNKGLPAPIEKTISKTKGQPREPQVYTLPPSREEMTKNQVSLTCLVKGFYPSDIAVEWESNGQPENNYKTTPPMLDSDGSFFLYSKLTVDKSRWQQGNVFSCSVMHEALHNHYTQKSLSLSPGKGGGGSGGGGSQVQLVQSGAEVKKPGSSVKVSCKASGFTFTDYKIHWVRQAPGQGLEWMGYINPNSGYSTYASKFQGRVTITADKSTSTAYMELSSLRSEDTAVYYCARLSPGGYYVMDAWGQGTTVTVSSGGGGSGGGGSGGGGSDIQMTQSPSSLSASVGDRVTITCRASQGINNYLNWYQQKPGKAPKLLIYNTNNLQTGVPSRFSGSGSGTEFTLTISSLQPEDEATYYCLQHNSFPTFGQGTKLEIKRT
light: DIQMTQSPSSLSASVGDRVTITCKSSQSLLASGNQNNYLAWYQQKPGKAPKMLIIWASTRVSGVPSRFSGSGSGTDFTLTISSLQPEDFATYYCQQSYSRPYTFGQGTKVEIKRTVAAPSVFIFPPSDEQLKSGTASVVCLLNNFYPREAKVQWKVDNALQSGNSQESVTEQDSKDSTYSLSSTLTLSKADYEKHKVYACEVTHQGLSSPVTKSFNRGEC
On to B1, for which the “c-Met degradation (relative total amount of c-Met, ELISA of lysates of MKN45 cells treated 24 hrs with 5 µg/ml antibody)” value in assay [1] was found to be 88.4%.

B2: anti-c-Met/anti-EGFR bispecific antibody ME-03S (bispecific antibody)
heavy: B1 heavy with G497C, G688C
light: B1 light
notes: Secondary mutant (disulfide-stabilised) anti-EGFR scFv fused to the C-terminus of the Fc of L3-1Y-IgG2
In [2], B2 had a Kd of 0.12 nM, a koff of 2.7e-05 s⁻¹ and a kon of 240000 M⁻¹ s⁻¹. In [3], this molecule showed a Kd of 0.23 nM, a koff of 0.00016 s⁻¹ and a kon of 670000 M⁻¹ s⁻¹.

B3: anti-c-Met/anti-EGFR bispecific antibody ME-01 (bispecific antibody)
heavy: B1 heavy with I504F, S515Q, L634R, E671F
light: B1 light
On to B3, for which the “c-Met degradation (relative total amount of c-Met, ELISA of lysates of MKN45 cells treated 24 hrs with 5 µg/ml antibody)” value in assay [1] came out at 86.8%.

B4: humanized antibody huAbF46 (H4-heavy / H4-light) (antibody, V domains shown)
VH: EVQLVESGGGLVQPGGSLRLSCAASGFTFTDYYMSWVRQAPGKGLEWLGFIRNKANGYTTEYSASVKGRFTISRDNSKNTLYLQMNSLRAEDTAVYYCARDNWFAYWGQGTLVTVSS
VL: DIQMTQSPSSLSASVGDRVTITCKSSQSLLASGNQNNYLAWHQQKPGKAPKMLIIWASTRVSGVPSRFSGSGSGTDFTLTISSLQPEDFATYYCQQSYSAPLTFGQGTKVEIKR
notes: Purified on Protein A as a whole antibody; also called humanized antibody AbF46
As for B4, the binding result was “no binding” in assay [4]; “no binding” in assay [5]; “no binding” in [6]; “no binding (tested: 100 nM to 0.39 nM of the peptides)” in assay [8]; “no binding (tested: 100 nM to 0.39 nM of the peptides)” in assay [9]; “no binding (tested: 100 nM to 0.39 nM of the peptides)” in assay [10]. In addition, in assay [12], the binding result is listed as “no binding (tested: 100 nM to 0.39 nM of the peptides)”. The values for the Kd in assay [7] and in [11] were 1.64 nM and 1.43 nM, respectively.
